B1: Delta941-1365: Uba3 deletion mutant, amino acid deletion 301-441 (protein)
chain: MAVDGGCGDTGDWEGRWNHVKKFLERSGPFTHPDFEPSTESLQFLLDTCKVLVIGAGGLGCELLKNLALSGFRQIHVIDMDTIDVSNLNRQFLFRPKDVGRPKAEVAAEFLNDRVPNCNVVPHFNKIQDFNDTFYRQFHIIVCGLDSIIARRWINGMLISLLNYEDGVLDPSSIVPLIDGGTEGFKGNARVILPGMTACIECTLELYPPQVNFPMCTIASMPRLPEHCIEYVRMLQWPKEQPFGDGVPLDGDDPEHIQWIFQKSIERASQYNIRGVTYRLTQGVVKRIIPAVASTNAVIA
B2: GST-SPATIAL short isoform fusion protein (other)
chain: LFLGNVYKGSLAPRRDEVTSPKAEPQPETKPENLPRSHGDVGLQKETVVPGIVDFELIHEELKTTKPQTSQPTPSAYRFGRLSHHSFFSRHHPQPQRVTHIQDIAGKPVCVVRDEFSLSALTQPTFLSRCLMGMPTISVPIGDPQSNRNPQLSTSDTWRKKLKDLASRVTVFTKEIQPKPDEVGVAQRMEPRKKRPS
notes: SPATIAL cDNA cloned into pGEx5X1, expressed in bacteria and held on glutathione-Sepharose beads; not shown: glutathione-S-transferase (GST) encoded by the pGEx5X1 expression vector
B3: GST-SPATIAL long isoform fusion protein (other)
chain: LFLGNVYKGSLAPRRDEVTSPKAEPQPETKPENLPRSHGDVGLQKETVVPGIVDFELIHEELKTTKPQTSQPTPSAYRFGRLSHHSFFSRHHPQPQRVTHIQVTGREDLEHSLPLTTSFQLLQAPGVQPMDLTPSADIAGKPVCVVRDEFSLSALTQPTFLSRCLMGMPTISVPIGDPQSNRNPQLSTSDTWRKKLKDLASRVTVFTKEIQPKPDEVGVAQRMEPRKKRPS
notes: as for B2
B4: Delta24-646: Uba3 deletion mutant, amino acid deletion 1-202 (protein)
chain: TLELYPPQVNFPMCTIASMPRLPEHCIEYVRMLQWPKEQPFGDGVPLDGDDPEHIQWIFQKSIERASQYNIRGVTYRLTQGVVKRIIPAVASTNAVIAAVCATEVFKIATSAYIPLNNYLVFNDVDGLYTYTFEAERKENCPACSQLPQNIQFSPSAKLQEVLDYLTNSASLQMKSPAITATLEGKNRTLYLQSVTSIEERTRPNLSKTLKELGLVDGQELAVADVTTPQTVLFKLHFT

Assays:
[1] = tested on: lymphoid cells; test: Thymocyte depletion of fetal thymic organ culture (FTOC); assay type: cell-based, mouse; details: after 14 days, flow cytometric analysis
Excerpt: SPATIAL expression cannot be detected in thymocytes using RT-PCR on RNA obtained from highly purified CD45+ thymocytes prepared by flow cytometer sorting from normal mice. Actin and cyclophilin mRNA was readily detected using the same RNA samples. To examine SPATIAL expression in stromal cells, thymii from day 14 mouse fetuses were harvested and cultured in fetal thymic organ culture (FTOC). The FTOC was specifically depleted of thymocytes using 2-deoxyguanosine treatment 2-deoxyguanosine is a nucleotide analog that is toxic to thymocytes. […] These cultures can be re-colonized by stem cells and are fully capable of supporting thymopoiesis (Hare et al., Semin. Immunol., 11(1):3-12, 1999). Using RT-PCR, it was shown that SPATIAL is abundantly expressed in thymic stromal cells obtained from FTOC (Flomerfelt et al., Genes and Immunity, 1:391-401, 2000).

[2] = target: T1, GST-SPATIAL(S) (Mus musculus, UniProt Q7TSD4); test: GST pulldown assay with GST-SPATIAL short isoform; assay type: binding; details: 35S-methionine labeled in vitro translated protein
T1 construct: made in house
T1 sequence (Q7TSD4 with tags, fused parts or gaps isoform Q7TSD4-7 limits assumed): B2 chain
Procedure: (§1) Eighteen cDNA clones identified in the yeast two-hybrid system were tested in an in vitro glutathione-S-transferase (GST) pulldown assay, as described in Ausubel et al., Current Protocols in Molecular Biology, Greene Publishing Associates, updated November 2003, Chapter 20, Analysis of Protein Interactions, Unit 20.2, Affinity Purification of Proteins Binding to GST Fusion Proteins.
(§2) Briefly, a GST-SPATIAL fusion construct was produced by cloning SPATIAL cDNA(s) into pGEx5X1 expression vector using standard molecular cloning techniques. GST or GST-SPATIAL fusion protein were expressed in 1-1000 ml bacterial cultures grown for 3-4 hours until OD600 reached 0.5. Then, plasmid expression was induced for 1.5-4 hours by the addition of ITPG to a final concentration of 0.11 mM. GST or GST-fusion proteins were purified using glutathione-Sepharose beads as described in Ausubel et al., Current Protocols in Molecular Biology, Greene Publishing Associates, updated November 2003, Chapter 20, Analysis of Protein Interactions, Unit 20.2, Affinity Purification of Proteins Binding to GST Fusion Proteins.
(§3) A coupled in vitro transcription and translation system (Promega) was used according to the manufacturer's instructions to produce radiolabeled protein from cDNAs to be tested. Radiolabeled proteins were mixed with either purified GST or GST-SPATIAL. Then, GST-containing protein complexes were purified by centrifugation from the reaction mixtures using glutathione-coated Sepharose beads. Bound proteins were eluted from the beads with SDS-PAGE loading buffer heated to 72-85° C., separated on polyacrylamide gels, and visualized by autoradiography. Specific interactions between GST-SPATIAL and in vitro translated proteins were indicated by the presence of a radiolabeled in vitro translated protein in the GST-SPATIAL-containing samples, but not in the GST-alone samples.
(§4) GST pulldown assays were performed as described in Example 9 using GST-SPATIAL(L) and GST-SPATIAL(S) and each of the Uba3 mutants described in this example.

[3] = target: T2, GST-SPATIAL(L) (Mus musculus, UniProt Q7TSD4); test: GST pulldown assay with GST-SPATIAL long isoform; assay type: binding; details: 35S-methionine labeled in vitro translated protein
T2 construct: made in house
T2 sequence (Q7TSD4 with tags, fused parts or gaps isoform Q7TSD4-6 limits assumed): B3 chain
Procedure: as §1, §2, §3, §4

[4] = tested on: Hb12 cells; test: Bcl-2 expression assay, SPATIAL-EGFP transfected Bcl-2 expressing thymocyte cell line; assay type: cell-based, mouse; details: Bcl-2 expression, FIG. 17B
Procedure: The mouse thymocyte cell line Wehi 7.2 and its variant Wbcl-2, which over expresses bcl-2, were maintained in DMEM supplemented with 10% heat-inactivated FBS, 2 mM glutamine, 100 U/ml penicillin, and 0.1 mg/ml streptomycin. Cells were grown at 37° C. in a humidified atmosphere with 5% CO2.
Transient transfections were performed using either lipids (Lipofectamine 2000 or FreeStyle 293 Expression System, each supplied by Invitrogen, Rockville, Md.) or calcium phosphate (Mammalian Transfection Kit; Stratagene, La Jolla, Calif.) or electroporation. Manufacturer instructions were followed for lipid and calcium phosphate transfections. For electroporation, the following procedure was used: Before transfection, Wehi cell and Wbcl-2 cells were counted and suspended in fresh complete DMEM without antibiotics at 5×10^5 cells/ml in a 15 cm dish. On the day of transfection, the cells were washed with PBS twice and were suspended in serum free DMEM at 6.25×10^6 cells/mL Aliquots of 800 μl cell suspension were transferred to a 4 mm electroporation cuvette and 10 μg of plasmid DNA solution was added. After 10 minutes incubation on ice, the cells were electroporated under the condition of 310 V, 725 ohms resistance, and 1050 μF capacitance. The transfected cells were incubated on ice for 10 minutes and suspended in complete DMEM in 10 cm dishes at the density of 7.5×10^4 viable cells/ml. […]

[5] = target: T3, Uba3 deletion mutant Delta364-912 (mouse, UniProt Q8C878 22-462, 35S-methionine labeled); test: GST pulldown of 35S-labelled in vitro translated Uba3 mutant
T3 construct: Amino acids 109-291 are deleted (PstI fragment removed); also called PstI digest
Procedure: as §3, §4

Row | Molecule | interaction with GST-SPATIAL(S) [2] | interaction with GST-SPATIAL(L) [3] | also measured
1 | Nc1nc2c(ncn2[C@H]2C[C@H](O)[C@@H](CO)O2)c(=O)[nH]1 [2-deoxyguanosine] |  |  | lymphoid cells depleted [1]: greater than 98%
2 | Delta364-912: Uba3 deletion mutant, amino acid deletion 109-291 (PstI digest) | does not interact | does not interact | 
3 | Bcl-2: human Bcl-2 gene expressed in Hb12 cells, inhibits apoptosis |  |  | reversal of growth suppressive effect of SPATIAL-EGFP transfection [4]: ineffective to reverse the growth suppressive effect
4 | B1 | interact | interact | 
5 | B2 |  |  | binding result [5]: no binding
6 | B3 |  |  | binding result [5]: no binding
7 | B4 | interact | interact | 

Source: US20070248589A1 (GOVERNMENT OF THE UNITED STATES OF AMERICA AS REPRESENTED …, published 2007)
